In patent publication US20230414703A1 (published 2023):

B1: peptide QP20 (peptide)
peptide: QTRTVPMPKIHHPPWQNVVP
notes: Found by phage display
B2: peptide HD20 (peptide)
peptide: HHHQVYQVRSHWTGMHSGHD
notes: Found by phage display
B3: peptide WQ20 (peptide)
peptide: WNLPASFHNHHIRPHEHEWIQ
notes: also called WQ-21
B4: peptide SQ20 (peptide)
peptide: SSYHHFKMPELHFGKNTFHQ
notes: Found by phage display
B5: mouse PD-1 receptor (receptor, UniProt Q02242 25-167, looked up)
chain: LEVPNGPWRSLTFYPAWLTVSEGANATFTCSLSNWSEDLMLNWNRLSPSNQTEKQAAFCNGLSQPVQDARFQIIQLPNRHDFHMNILDTRRNDSGIYLCGAISLHPKAKIEESPGAELVVTERILETSTRYPSPSPKPEGRFQ

Legend:
[1] = biological target: T1, soluble recombinant human PD-1 receptor (human, UniProt Q15116 25-167, limits assumed); assay: clonal phage ELISA, peptide on phage, PD-1 coated well
T1 construct: also called human PD-1 receptors
T1 sequence (Q15116 25-167 limits assumed): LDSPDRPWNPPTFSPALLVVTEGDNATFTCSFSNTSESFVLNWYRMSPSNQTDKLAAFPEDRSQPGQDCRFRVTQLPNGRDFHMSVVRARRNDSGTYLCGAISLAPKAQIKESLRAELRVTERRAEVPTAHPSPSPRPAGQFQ
Source text: The TriCo-20™ (TRICO-20™) and TriCo-16™ (TRICO-16™) Phage Display Peptide Libraries (Creative Biolabs, 45-1 Ramsey Road, Shirley, NY 11967) were screened to identify binders of soluble recombinant human PD-1 receptor.

[2] = biological target: T1, soluble recombinant human PD-1 receptor; assay: BIACORE T-200 SPR, PD-1 immobilised on CM5, steady state
Method: (§1) 12,000 response units (RU) of human and 6000 RU of mouse PD-1 receptors were directly immobilized on flow cell 2 and flow cell 4 of the CM5 chip by amine coupling method (EDC/NHS). The un-occupied sites were blocked with 1 M ethanol amine. […] Flow cell 1 was kept blank and used for reference subtraction. Binding of analyte to the ligand was monitored in real time.
(§2) Due to fast on rate and off rate, KD was determined by steady state equilibrium kinetics.
(§3) Chi square (χ2) analysis was carried out between the actual sensorgram and a sensorgram generated from the BIANALYSIS® software (black line) to determine the accuracy of the analysis. A χ2 value within 1-2 is considered significant (accurate) and below 1 is highly significant (highly accurate).

mouse PD-1 receptor = biological target: B5; assay: as above
Method: as §1, §2, §3

[3] = biological target: human PD-1 on Jurkat cells (human, UniProt Q15116 25-288); assay: cell-based or functional assay
Sequence of human PD-1 on Jurkat cells (Q15116 25-288): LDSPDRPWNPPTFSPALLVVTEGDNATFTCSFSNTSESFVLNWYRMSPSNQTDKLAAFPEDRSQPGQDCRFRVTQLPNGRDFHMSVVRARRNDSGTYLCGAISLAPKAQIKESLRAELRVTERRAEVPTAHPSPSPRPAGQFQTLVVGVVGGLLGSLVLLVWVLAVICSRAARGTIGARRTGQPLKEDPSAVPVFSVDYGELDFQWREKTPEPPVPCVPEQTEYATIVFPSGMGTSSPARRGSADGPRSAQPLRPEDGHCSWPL

Mouse PD-L1 = Mouse PD-L1 (mouse, UniProt Q9EP73 19-239, limits assumed); assay: BIACORE T-200 SPR, PD-1 immobilised on CM5, steady state
Sequence of Mouse PD-L1 (Q9EP73 19-239 limits assumed): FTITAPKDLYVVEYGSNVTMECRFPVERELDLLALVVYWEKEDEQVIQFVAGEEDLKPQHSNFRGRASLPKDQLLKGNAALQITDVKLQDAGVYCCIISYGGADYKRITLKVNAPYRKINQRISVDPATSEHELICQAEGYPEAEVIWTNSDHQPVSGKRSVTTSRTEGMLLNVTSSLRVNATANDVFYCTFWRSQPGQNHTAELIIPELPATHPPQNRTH

Binder	Clonal Phase ELISA coated signal [1]	Ka [2] [M⁻¹]	Kd [2] [µM]	Ka (mouse PD-1 receptor) [M⁻¹]	Kd (mouse PD-1 receptor) [µM]	peak-fold inhibition (luciferase reporter expression) [3] [fold]	Ka (Mouse PD-L1) [M⁻¹]	Kd (Mouse PD-L1) [µM]
B1	0.851	93600	10.7	18000	55.4	~1.5	–	–
B2	0.281	318000	3.41	4250	235	~1.5	–	–
B3	0.275	3280	305	1310	761	~1.5	–	–
B4	0.284	194000	5.16	21400	46.8	~1.5	–	–
B5	–	–	–	–	–	–	2.75e+06	0.364
